Experimental data taken from patent US20240182547A1 (MOGAM INSTITUTE FOR BIOMEDICAL RESEARCH, published 2024).

Molecular target: DS-Cav1 (RSV F-protein, pre-form, in-house) (respiratory syncytial virus (RSV), UniProt P03420 26-513)
Test: ELISA, coated DS-Cav1, IgG titrated

Chain of DS-Cav1 (RSV F-protein, pre-form, in-house) (P03420 26-524): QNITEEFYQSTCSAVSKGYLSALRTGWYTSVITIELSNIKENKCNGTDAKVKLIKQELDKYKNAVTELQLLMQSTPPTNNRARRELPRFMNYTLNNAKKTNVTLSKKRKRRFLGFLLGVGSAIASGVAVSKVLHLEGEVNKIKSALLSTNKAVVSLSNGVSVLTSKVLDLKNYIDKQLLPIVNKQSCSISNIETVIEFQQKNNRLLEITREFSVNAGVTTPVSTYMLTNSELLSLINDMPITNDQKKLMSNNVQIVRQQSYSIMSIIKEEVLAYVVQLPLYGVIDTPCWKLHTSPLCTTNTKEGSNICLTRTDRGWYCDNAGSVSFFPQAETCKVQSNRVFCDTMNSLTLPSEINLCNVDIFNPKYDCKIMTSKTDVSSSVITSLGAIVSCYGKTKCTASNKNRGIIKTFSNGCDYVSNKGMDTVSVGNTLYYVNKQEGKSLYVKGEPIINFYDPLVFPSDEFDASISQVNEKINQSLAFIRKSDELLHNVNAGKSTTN

Row | Binder | Kd [nM]
1 | 4H1 (antibody, V domains shown, IgG made in Expi293; also called #3) VH: EVQLVESGGGLVKPGGSLRLSCAGSGFTFSSYTMHWVRQAPGKGLEWVSSITGGSSYVDYSASVKGRFTISRDNAQSSLYLQMNSLRAEDTAVYYCARDDYGSGSYSNWFDPWGQGTLVTVSS VL: QSVLTQPPSVSGAPGQRVTISCTGSSSNIGAGYDVHWYQQVPGTAPKLLIFGSTNRPSGVPDRFSGSKSGASASLAITGLQADDEADYYCQPYDRSLSHVFGTGTKVTVLR | ~1.73
2 | 2H8 (antibody, V domains shown, IgG made in Expi293; also called #26; 26) VH: EVQLVESGGGLAKPGGSLRLSCAASGFTFTSYRMHWVRQAPGKGLEWVSSITGGGNYIEYADSVKGRFTISRDNAKNSLDLQMNSLRAEDTAIYYCARDMYGLGSYYSPNYFDPWGQGTLVTVSS VL: QSVLTQPPSVSGAPGQRVTISCTGSSSNIGAGYDVHWYQQLPGAAPRLLMFGNSNRPSGVPDRFSGSKSGTSASLAITGLQAEDEADYYCQSYDRSLSHVFGTGTKVTVLG | ~0.42
3 | 2G1 (antibody, V domains shown, IgG made in Expi293; also called #21; 21) VH: QVTLKESGGGLVKPGGSLRLSCAASGFTFTSYRMHWVRQAPGKGLEWVSSITGGGNYIEYADSVKGRFTISRDNAKNSLDLQMNSLRAEDTAIYYCARDMYGLGSYYSPNYFDPWGQGTLVTVSS VL: QSVLTQPPSVSGAPGQRVTISCTGSSSNIGAGYDVHWYQQLPGTAPKLLIFGSTNRPSGVPDRFSGSKSGASASLAITGLQTEDEADYYCQSYDRSLSHVFGTGTKVTVLG | ~0.55
4 | 4H5 (antibody, V domains shown, IgG made in Expi293) VH: EVQLVESGGGLVKPGGSLRLSCAGSGFTFSSYTMHWVRQAPGKGLEWVSSITGGSSYVDYSASVKGRFTISRDNAQSSLYLQMNSLRAEDTAVYYCARDDYGSGSYSNWFDPWGQGTLVTVSS VL: QSVLTQPPSVSGAPGQRVTISCTGSSSNIGAGYDVHWYQQLPGAAPRLLMFGNSNRPSGVPDRFSGSKSGTSASLAITGLQAEDEADYYCQSYDRSLSHVFGTGTKVTVLG | ~0.23
5 | 4G1 (antibody, V domains shown, IgG made in Expi293; also called #33; 33) VH: QVTLKESGGGLVKPGGSLRLSCAASGFRLSSYGMNWVRQAPGKGLEWVSSISASSSFINYADSVRDRFTISRDNAKNSLYLQMNSLRAEDTAVYYCARDDYGSGSYSNWFDPWGQGTLVTVSS VL: QSVLTQPPSVSGAPGQRVTISCTGNSSNLGAGYDVHWYQQLPGRAPKLLIFANTNRPSGVPDRFSGSKSGASASLAITSLQADDEADYYCQSYDRSLSHVFGTGTKVTVLG | ~0.27
6 | 13C2 (antibody, V domains shown, IgG made in Expi293; also called #25; 25) VH: EVQLVESGGGLVKPGGSLRLSCAASGFTFTSYRMHWVRQAPGKGLEWVSSITGGGNYIEYADSVKGRFTISRDNAKNSLDLQMNSLRAEDTAIYYCARDMYGLGSYYSPNYFDPWGQGTLVTVSS VL: QSVLTQPPSVSGAPGQRVTISCTGSSSNIGAGYDVHWYQQVPGTAPKLLIFGSTDRPSGVPDRFSGSKSGNTASLTISGLQAEDEADYYCQSYDRSLSHVFGTGTKVTVLG | ~1.16
7 | 1E6 (antibody, V domains shown, IgG made in Expi293; also called #22; 22) VH: EVQLVESGGGLVKPGGSLRLSCAASGFTFTSYRMHWVRQAPGKGLEWVSSITGGGNYIEYADSVKGRFTISRDNAKNSLDLQMNSLRAEDTAIYYCARDMYGLGSYYSPNYFDPWGQGTLVTVSS VL: QSVLTQPPSVSGAPGQRVTISCTGSSSNIGAGYDVHWYQQLPGRAPKLLIFANTNRPSGVPDRFSGSKSGASASLAITGLQADDEADYYCQSYDRSLSHVFGTGTKVTVLG | ~0.34
8 | #33m (antibody, V domains shown, Germline-edited (m) form of 4G1, heavy chain edited; IgG; also called 4G1 (modified)) VH: EVQLVESGGGLVKPGGSLRLSCAASGFRLSSYGMNWVRQAPGKGLEWVSSISASSSFINYADSVRDRFTISRDNAKNSLYLQMNSLRAEDTAVYYCARDDYGSGSYSNWFDPWGQGTLVTVSS VL: QSVLTQPPSVSGAPGQRVTISCTGNSSNLGAGYDVHWYQQLPGRAPKLLIFANTNRPSGVPDRFSGSKSGASASLAITSLQADDEADYYCQSYDRSLSHVFGTGTKVTVLG | ~0.97
9 | 4E3 (antibody, V domains shown, IgG made in Expi293) VH: EVQLVESGGGLVKPGGSLRLSCAGSGFTFSSYTMHWVRQAPGKGLEWVSSITGGSSYVDYSASVKGRFTISRDNAQSSLYLQMNSLRAEDTAVYYCARDDYGSGSYSNWFDPWGQGTLVTVSS VL: QSVLTQPPSVSGAPGQRVTISCTGSSSNIGAGYDVHWYQQVPGTAPKLLIFGSTNRPSGVPDRFSGSKSGASASLAITGLQADDEADYYCQSYDRSLSHVFGTGTKVTVLG | ~0.33
10 | 2H11 (antibody, V domains shown, IgG made in Expi293; also called #23; 23) VH: QVQLVQSGGGLVKPGGSLRLSCAASGFTFTSYRMHWVRQAPGKGLEWVSSITGGGNYIEYADSVKGRFTISRDNAKNSLDLQMNSLRAEDTAIYYCARDMYGLGSYYSPNYFDPWGQGTTVTVSS VL: QSVLTQPPSVSGAPGQRVTISCTGSSSNIGAGYDVHWYQQLPGRAPKLLIFANTNRPSGVPDRFSGSKSGASASLAISGLQAEDEAHYYCQSYDRSLNVVFGGGTELTVLG | ~0.45
11 | 2G11 (antibody, V domains shown, IgG made in Expi293; also called #29; 29) VH: EVQLVESGGGLVQPGGSLRLSCAASGFTFTSYRMHWVRQAPGKGLEWVSSITGGGNYIEYADSVKGRFTISRDNAKNSLDLQMNSLRAEDTAIYYCARDMYGLGSYYSPNYFDPWGQGTLVTVSS VL: QSVLTQPPSVSGAPGQRVTISCTGSSSNIGAGYDVHWYQQLPGAAPRLLMFGNSNRPSGVPDRFSGSKSGTSASLAITGLQAEDEADYYCQSYDSSLSYVFGTGTKVTVLG | ~0.85
12 | 10A6 (antibody, V domains shown, IgG made in Expi293; also called #27; 27) VH: EVQLVESGGGLVKPGGSLRLSCAASGFTFTSYRMHWVRQAPGKGLEWVSSITGGGNYIEYADSVKGRFTISRDNAKNSLDLQMNSLRAEDTAIYYCARDMYGLGSYYSPNYFDSWGQGTLVTVSS VL: SYELTQPPSVSGAPGQRVTISCTGSSSNIGAGYDVHWYQQLPGAAPRLLMFGNSNRPSGVPDRFSGSKSGTSASLAITGLQAEDEADYYCQSYDSSLSYVFGTGTKVTVLG | ~1.56
13 | 2F1 (antibody, V domains shown, IgG made in Expi293; also called #24; 24) VH: EVQLVESGGGLVKPGGSLRLSCAASGFTFTSYRMHWVRQAPGKGLEWVSSITGGGNYIEYADSVKGRFTISRDNAKNSLDLQMNSLRAEDTAIYYCARDMYGLGSYYSPNYFDPWGQGTLVTVSS VL: QSVLTQPPSVSGAPGQRVTISCTGSSSNIGAGYDVHWYQQVPGTAPKLLIFGSTNRPSGVPDRFSGSKSGASASLAITGLQTEDEADYYCQSYDRSLSAWVFGGGTKLTVLG | ~0.66
14 | 4G2 (antibody, V domains shown, IgG made in Expi293; also called #28; 28) VH: EVQLVESGGGLVKPGGSLRLSCAASGFTFTSYRMHWVRQAPGKGLEWVSSITGGGNYIEYADSVKGRFTISRDNAKNSLDLQMNSLRAEDTAIYYCARDMYGLGSYYSPNYFDPWGQGTLVTVSS VL: QSVLTQPPSVSGAPGQRVTISCTGSSSNIGAGYDVHWYQQLPGAAPRLLMFGNSNRPSGVPDRFSGSKSGTSASLAITGLQAEDEADYYCQSYDSSLSHVFGTGTKVTVLG | ~1.05
15 | #27m (antibody, V domains shown, Germline-edited (m) form of 10A6, light chain edited; IgG; also called 10A6 (modified)) VH: EVQLVESGGGLVKPGGSLRLSCAASGFTFTSYRMHWVRQAPGKGLEWVSSITGGGNYIEYADSVKGRFTISRDNAKNSLDLQMNSLRAEDTAIYYCARDMYGLGSYYSPNYFDSWGQGTLVTVSS VL: QSVLTQPPSVSGAPGQRVTISCTGSSSNIGAGYDVHWYQQLPGAAPRLLMFGNSNRPSGVPDRFSGSKSGTSASLAITGLQAEDEADYYCQSYDSSLSYVFGTGTKVTVLG | ~1.41
16 | 12F7 (antibody, V domains shown, IgG made in Expi293; also called #38; 38) VH: QMQLVQSGPEVKKPGSSVKVSCKASGYTFTDYGLSWVRQAPGHGLEWMGWITAYNGDTNYAQKFQDRLSVTTDISTSTAYMELRSLKSDDTAVYYCARHVFCSGDGCYSGLGSWGQGTLVTVSS VL: not shown | ~0.27
17 | 12C10 (antibody, V domains shown, IgG made in Expi293; also called #42; 42) VH: QVQLVQSGSEVKKPGASVKVSCKASGYTFTDYGLSWVRQAPGHGLEWMGWITAYNGDTNYAQKFQDRLSVTTDISTSTAYMELRSLKSDDTAVYYCARHVFCSGDGCYSGLGSWGQGTLVTVSS VL: not shown | ~0.44
18 | 4G5 (antibody, V domains shown, IgG made in Expi293; also called #45; 45) VH: QVQLVQSGSEVKKPGASVKVSCKASGYTFTDYGLSWVRQAPGHGLEWMGWITAYNGDTNYAQKFQDRLSVTTDISTSTAYMELRSLKSDDTAVYYCARHVFCSGDGCYSGLGSWGQGTLVTVSS VL: not shown | ~0.67
19 | #40m (antibody, V domains shown, Germline-edited (m) form of 4H11, light chain edited; IgG; also called 4H11 (modified)) VH: QVQLVQSGAEVKKPGASVKVSCKASGYTFTDYGLSWVRQAPGHGLEWMGWITAYNGDTNYAQKFQDRLSVTTDISTSTAYMELRSLKSDDTAVYYCARHVFCSGDGCYSGLGSWGQGTLVTVSS VL: not shown | ~1.25
20 | 4H11 (antibody, V domains shown, IgG made in Expi293; also called #40; 40) VH: QVQLVQSGAEVKKPGASVKVSCKASGYTFTDYGLSWVRQAPGHGLEWMGWITAYNGDTNYAQKFQDRLSVTTDISTSTAYMELRSLKSDDTAVYYCARHVFCSGDGCYSGLGSWGQGTLVTVSS VL: not shown | ~0.39
21 | #41m (antibody, V domains shown, Germline-edited (m) form of 2G3, light chain edited; IgG; also called 2G3 (modified)) VH: QVQLVQSGAEVKKPGASVKVSCKASGYTFTDYGLSWVRQAPGHGLEWMGWITAYNGDTNYAQKFQDRLSVTTDISTSTAYMELRSLKSDDTAVYYCARHVFCSGDGCYSGLGSWGQGTLVTVSS VL: not shown | ~1.23
22 | #38m (antibody, V domains shown, Germline-edited (m) form of 12F7, heavy and light chain edited; IgG; also called 12F7 (modified)) VH: QVQLVQSGAEVKKPGASVKVSCKASGYTFTDYGLSWVRQAPGHGLEWMGWITAYNGDTNYAQKFQDRLSVTTDISTSTAYMELRSLKSDDTAVYYCARHVFCSGDGCYSGLGSWGQGTLVTVSS VL: not shown | ~1.24
23 | 3E8 (antibody, V domains shown, IgG made in Expi293; also called #43; 43) VH: QVQLVQSGSEVKKPGASVKVSCKASGYTFTDYGLSWVRQAPGHGLEWMGWITAYNGDTNYAQKFQDRLSVTTDISTSTAYMELRSLKSDDTAVYYCARHVFCSGDGCYSGLGSWGQGTLVTVSS VL: not shown | ~0.45
24 | #42m (antibody, V domains shown, Germline-edited (m) form of 12C10, light chain edited; IgG; also called 12C10 (modified)) VH: QVQLVQSGSEVKKPGASVKVSCKASGYTFTDYGLSWVRQAPGHGLEWMGWITAYNGDTNYAQKFQDRLSVTTDISTSTAYMELRSLKSDDTAVYYCARHVFCSGDGCYSGLGSWGQGTLVTVSS VL: not shown | ~1.25
25 | 2G3 (antibody, V domains shown, IgG made in Expi293; also called #41; 41) VH: QVQLVQSGAEVKKPGASVKVSCKASGYTFTDYGLSWVRQAPGHGLEWMGWITAYNGDTNYAQKFQDRLSVTTDISTSTAYMELRSLKSDDTAVYYCARHVFCSGDGCYSGLGSWGQGTLVTVSS VL: not shown | ~2.11
